Reference: patent US20110263454A1, “Methods of Identifying Functional Characteristics of Promoters, Transcription Modifying Proteins and Transcription Modulating Agents” (Salk Institute for Biological Studies, priority 2008, published 2011)

B1: ERR2: Estrogen Related Receptor β (NR3B2, ERRb), cDNA driver (protein, UniProt O95718 1-433, looked up)
Steroid hormone receptor ERR2: MSSDDRHLGSSCGSFIKTEPSSPSSGIDALSHHSPSGSSDASGGFGLALGTHANGLDSPPMFAGAGLGGTPCRKSYEDCASGIMEDSAIKCEYMLNAIPKRLCLVCGDIASGYHYGVASCEACKAFFKRTIQGNIEYSCPATNECEITKRRRKSCQACRFMKCLKVGMLKEGVRLDRVRGGRQKYKRRLDSESSPYLSLQISPPAKKPLTKIVSYLLVAEPDKLYAMPPPGMPEGDIKALTTLCDLADRELVVIIGWAKHIPGFSSLSLGDQMSLLQSAWMEILILGIVYRSLPYDDKLVYAEDYIMDEEHSRLAGLLELYRAILQLVRRYKKLKVEKEEFVTLKALALANSDSMYIEDLEAVQKLQDLLHEALQDYELSQRHEEPWRTGKLLLTLPLLRQTAAKAVQHFYSVKLQGKVPMHKLFLEMLEAKV
B2: TR2: Testicular Orphan Nuclear Receptor 2 (NR2C1), cDNA driver (protein, UniProt P13056 1-603, looked up)
Nuclear receptor subfamily 2 …: MATIEEIAHQIIEQQMGEIVTEQQTGQKIQIVTALDHNTQGKQFILTNHDGSTPSKVILARQDSTPGKVFLTTPDAAGVNQLFFTTPDLSAQHLQLLTDNSPDQGPNKVFDLCVVCGDKASGRHYGAVTCEGCKGFFKRSIRKNLVYSCRGSKDCIINKHHRNRCQYCRLQRCIAFGMKQDSVQCERKPIEVSREKSSNCAASTEKIYIRKDLRSPLTATPTFVTDSESTRSTGLLDSGMFMNIHPSGVKTESAVLMTSDKAESCQGDLSTLANVVTSLANLGKTKDLSQNSNEMSMIESLSNDDTSLCEFQEMQTNGDVSRAFDTLAKALNPGESTACQSSVAGMEGSVHLITGDSSINYTEKEGPLLSDSHVAFRLTMPSPMPEYLNVHYIGESASRLLFLSMHWALSIPSFQALGQENSISLVKAYWNELFTLGLAQCWQVMNVATILATFVNCLHNSLQQDKMSTERRKLLMEHIFKLQEFCNSMVKLCIDGYEYAYLKAIVLFSPDHPSLENMEQIEKFQEKAYVEFQDYITKTYPDDTYRLSRLLLRLPALRLMNATITEELFFKGLIGNIRIDSVIPHILKMEPADYNSQIIGHSI
B3: TR4: Testicular Orphan Nuclear Receptor 4 (NR2C2), cDNA driver (protein, UniProt P49116 1-596, looked up)
Nuclear receptor subfamily 2 …: MTSPSPRIQIISTDSAVASPQRIQIVTDQQTGQKIQIVTAVDASGSPKQQFILTSPDGAGTGKVILASPETSSAKQLIFTTSDNLVPGRIQIVTDSASVERLLGKTDVQRPQVVEYCVVCGDKASGRHYGAVSCEGCKGFFKRSVRKNLTYSCRSNQDCIINKHHRNRCQFCRLKKCLEMGMKMESVQSERKPFDVQREKPSNCAASTEKIYIRKDLRSPLIATPTFVADKDGARQTGLLDPGMLVNIQQPLIREDGTVLLATDSKAETSQGALGTLANVVTSLANLSESLNNGDTSEIQPEDQSASEITRAFDTLAKALNTTDSSSSPSLADGIDTSGGGSIHVISRDQSTPIIEVEGPLLSDTHVTFKLTMPSPMPEYLNVHYICESASRLLFLSMHWARSIPAFQALGQDCNTSLVRACWNELFTLGLAQCAQVMSLSTILAAIVNHLQNSIQEDKLSGDRIKQVMEHIWKLQEFCNSMAKLDIDGYEYAYLKAIVLFSPDHPGLTSTSQIEKFQEKAQMELQDYVQKTYSEDTYRLARILVRLPALRLMSSNITEELFFTGLIGNVSIDSIIPYILKMETAEYNGQITGASL
B4: RORb: RAR-related Orphan Receptor β (NR1F2), cDNA driver (protein, UniProt Q92753 1-470, looked up)
Nuclear receptor ROR-beta: MCENQLKTKADATAQIEVIPCKICGDKSSGIHYGVITCEGCKGFFRRSQQNNASYSCPRQRNCLIDRTNRNRCQHCRLQKCLALGMSRDAVKFGRMSKKQRDSLYAEVQKHQQRLQEQRQQQSGEAEALARVYSSSISNGLSNLNNETSGTYANGHVIDLPKSEGYYNVDSGQPSPDQSGLDMTGIKQIKQEPIYDLTSVPNLFTYSSFNNGQLAPGITMTEIDRIAQNIIKSHLETCQYTMEELHQLAWQTHTYEEIKAYQSKSREALWQQCAIQITHAIQYVVEFAKRITGFMELCQNDQILLLKSGCLEVVLVRMCRAFNPLNNTVLFEGKYGGMQMFKALGSDDLVNEAFDFAKNLCSLQLTEEEIALFSSAVLISPDRAWLIEPRKVQKLQEKIYFALQHVIQKNHLDDETLAKLIAKIPTITAVCNLHGEKLQVFKQSHPEIVNTLFPPLYKELFNPDCATGCK
B5: HNF4g: Hepatocyte Nuclear Factor γ (NR2A2), cDNA driver (protein, UniProt Q14541 1-408, looked up)
Hepatocyte nuclear factor …: MNTTDNGVNCLCAICGDRATGKHYGASSCDGCKGFFRRSIRKSHVYSCRFSRQCVVDKDKRNQCRYCRLRKCFRAGMKKEAVQNERDRISTRRSTFDGSNIPSINTLAQAEVRSRQISVSSPGSSTDINVKKIASIGDVCESMKQQLLVLVEWAKYIPAFCELPLDDQVALLRAHAGEHLLLGATKRSMMYKDILLLGNNYVIHRNSCEVEISRVANRVLDELVRPFQEIQIDDNEYACLKAIVFFDPDAKGLSDPVKIKNMRFQVQIGLEDYINDRQYDSRGRFGELLLLLPTLQSITWQMIEQIQFVKLFGMVKIDNLLQEMLLGGASNDGSHLHHPMHPHLSQDPLTGQTILLGPMSTLVHADQISTPETPLPSPPQGSGQEQYKIAANQASVISHQHLSKQKQL
B6: Erb: Estrogen Receptor β (NR3A2, ERb), cDNA driver (protein, UniProt Q92731 1-530, looked up)
Estrogen receptor beta: MDIKNSPSSLNSPSSYNCSQSILPLEHGSIYIPSSYVDSHHEYPAMTFYSPAVMNYSIPSNVTNLEGGPGRQTTSPNVLWPTPGHLSPLVVHRQLSHLYAEPQKSPWCEARSLEHTLPVNRETLKRKVSGNRCASPVTGPGSKRDAHFCAVCSDYASGYHYGVWSCEGCKAFFKRSIQGHNDYICPATNQCTIDKNRRKSCQACRLRKCYEVGMVKCGSRRERCGYRLVRRQRSADEQLHCAGKAKRSGGHAPRVRELLLDALSPEQLVLTLLEAEPPHVLISRPSAPFTEASMMMSLTKLADKELVHMISWAKKIPGFVELSLFDQVRLLESCWMEVLMMGLMWRSIDHPGKLIFAPDLVLDRDEGKCVEGILEIFDMLLATTSRFRELKLQHKEYLCVKAMILLNSSMYPLVTATQDADSSRKLAHLLNAVTDALVWVIAKSGISSQQQSMRLANLLMLLSHVRHASNKGMEHLLNMKCKNVVPVYDLLLEMLNAHVLRGCKSSITGSECSPAEDSKSKEGSQNPQSQ

Columns and labels:
SREBP1c promoter = assay: NHR-promoter luciferase screen, SREBP1c promoter; assay type: cell-based, mouse; settings: for Luc. act., normalized to lacZ / Normalized Luc. act., normalized to control: SREBP1c promoter, HR component without or with ligand; for mSREBP1-c promoter reporter activity: transcription factor +/- ligand, control = 1.00
How it was run: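 Values are luciferase activity normalised to LacZ (transfection control) and to a control lacking NHR or ligand. Read-out at 48 h in CV-1 cells carrying 100 ng promoter-reporter, 50 ng receptor (alone or with RXR) and 50 ng LacZ.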

mADRP promoter = assay: NHR-promoter luciferase screen, mADRP promoter; assay type: cell-based, mouse; settings: for Luc. act., normalized to lacZ / Normalized Luc. act., normalized to control: ADRP promoter, HR/ligand component; for mADRP promoter reporter activity: transcription factor +/- ligand, control = 1.00
How it was run: (§1)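 CV-1 cells were co-transfected with 50 ng NHR (homodimer or NHR/RXR heterodimer), 100 ng promoter-luciferase construct and 50 ng LacZ. Luciferase was normalized to LacZ and to a no-NHR/no-ligand control.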

hIFNg promoter = assay: NHR-promoter luciferase screen, hIFNg promoter; assay type: cell-based, human; settings: for Luc. act., normalized to lacZ / Normalized Luc. act., normalized to control: IFNg promoter, HR component without or with ligand; for hIFNg promoter reporter activity: transcription factor +/- ligand, control = 1.00
How it was run: as §1

mDio2 promoter = assay: NHR-promoter luciferase screen, mDio2 promoter; assay type: cell-based, mouse; settings: for Luc. act., normalized to lacZ / Normalized Luc. act., normalized to control: Dio2, HR component without or with its ligand; for mDio2 promoter reporter activity: transcription factor +/- ligand, control = 1.00
How it was run: as §1

hPPARg2 promoter = assay: NHR-promoter luciferase screen, hPPARg2 promoter; assay type: cell-based, human; settings: for Luc. act., normalized to lacZ / Normalized Luc. act., normalized to control: PPARG2 promoter, hormone receptor with or without its ligand; for Normalized Luc. act., normalized to control: relative to control; for Results of assays of transcription factor (+/- ligand) with hPPARg2: Table 6d, luciferase activity relative to control (control = 1.00)
How it was run: as §1

hIRF7 promoter = assay: NHR-promoter luciferase screen, hIRF7 promoter; assay type: cell-based, human; settings: for Normalized Luc. act., normalized to control / Luc. act., normalized to lacZ: IRF7 promoter reporter; for Normalized Luc. act., normalized to control: HR without or with its ligand, relative to control; for Luc. act., normalized to lacZ: hormone receptor (HR) without or with its ligand; for hIRF7 promoter reporter activity: transcription factor +/- ligand, control = 1.00
How it was run: as §1

| Molecule | Luc. act., normalized to lacZ (SREBP1c promoter) | Normalized Luc. act., normalized to control (SREBP1c promoter) | mSREBP1-c promoter reporter activity (SREBP1c promoter) | Luc. act., normalized to lacZ (mADRP promoter) | Normalized Luc. act., normalized to control (mADRP promoter) | mADRP promoter reporter activity (mADRP promoter) | Luc. act., normalized to lacZ (hIFNg promoter) | Normalized Luc. act., normalized to control (hIFNg promoter) | hIFNg promoter reporter activity (hIFNg promoter) | Luc. act., normalized to lacZ (mDio2 promoter) | Normalized Luc. act., normalized to control (mDio2 promoter) | mDio2 promoter reporter activity (mDio2 promoter) | Luc. act., normalized to lacZ (hPPARg2 promoter) | Normalized Luc. act., normalized to control (hPPARg2 promoter) | Results of assays of transcription factor (+/- ligand) with hPPARg2 (hPPARg2 promoter) | Normalized Luc. act., normalized to control (hIRF7 promoter) | Luc. act., normalized to lacZ (hIRF7 promoter) | hIRF7 promoter reporter activity (hIRF7 promoter) |
| --- | --- | --- | --- | --- | --- | --- | --- | --- | --- | --- | --- | --- | --- | --- | --- | --- | --- | --- |
| B1 | 347.9 | 1.1 | 1.08 | 874.7 | 1.8 | 1.76 | 58.9 | 3.7 | 3.70 | 39.5 | 2.5 | 2.52 | 3.2 | 1.6 | 1.59 | 2.3 | 60.5 | 2.30 |
| B2 | 102.9 | 0.3 | 0.32 | 684.7 | 1.4 | 1.38 | 13.6 | 0.9 | 0.85 | 33.8 | 2.2 | 2.15 | 1.9 | 1.0 | 0.95 | 1.0 | 25.8 | 0.98 |
| B3 | 477.6 | 1.5 | 1.48 | 1003.3 | 2.0 | 2.02 | 42.5 | 2.7 | 2.67 | 51.9 | 3.3 | 3.31 | 3.3 | 1.6 | 1.65 | 1.9 | 48.8 | 1.85 |
| B4 | 442.5 | 1.4 | 1.37 | 685.3 | 1.4 | 1.38 | 22.2 | 1.4 | 1.40 | 23.1 | 1.5 | 1.47 | 1.8 | 0.9 | 0.89 | 1.6 | 40.9 | 1.55 |
| B5 | 296.9 | 0.9 | 0.92 | 511.7 | 1.0 | 1.03 | 13.3 | 0.8 | 0.83 | 18.0 | 1.1 | 1.14 | 1.5 | 0.8 | 0.76 | 1.2 | 31.7 | 1.20 |
| B6 | 249.2 | 0.8 | 0.77 | 536.9 | 1.1 | 1.08 | 22.0 | 1.4 | 1.39 | 19.9 | 1.3 | 1.27 | 2.3 | 1.1 | 1.13 | 1.4 | 37.5 | 1.42 |
